Data: patent US20070041977A1 (AFFIMED THERAPEUTICS, published 2007)
No end group written: not given here.

Tests used:
[1] = target: T1, LRP peptide PSVPIQQFPTEDWSA (synthesized on a cellulose membrane); assay: peptide array on cellulose membrane, scFv 1:5000
T1 peptide: PSVPIQQFPTEDWSA
Description: (§1) The N-terminus of each peptide was displaced by 3 amino acids in relation to the previous peptide, so that each peptide overlapped with the previous peptide by 12 amino acids. The synthesis of the peptides was carried out on a cellulose membrane.

[2] = target: T2, LRP peptide TEDWSAAPTAQATEW (synthesized on a cellulose membrane); assay: peptide array on cellulose membrane, scFv 1:5000
T2 peptide: TEDWSAAPTAQATEW
Description: as §1

[3] = target: T3, recombinant murine LRP::FLAG expressed in BHK cells transfected with SFV1-moLRP::FLAG (murine, UniProt P14206 2-295); assay: Western Blot of total extracts of transfected BHK cells
T3 construct: whole, on cells; also called muLRP-FLAG; murine 37 kDa LRP::FLAG
Description: (§2) BHK cells were either not transfected (n.t.) or transfected in the manner known to the person skilled in the art in the specialty with the rec. Semliki forest virus (SFV) RNAs SFV1-huLRP-FLAG or SFV1-mol.RP::FLAG. The method of preparation of rec. SFV RNA, the transfection and the analysis by Western Blotting or immunofluorescence (FIG. 12) or FACS (FIG. 13) have already been described (Gauczynski et al., 2002; Gauczynski et al., 2001b). 24 h post-transfection, total cell extracts were analyzed by Western Blotting. […] The control used was the anti-LRP antibody mLRP43512 (A), and an anti-mouse IgG-HRP-coupled secondary antibody. As a loading control, the β-actin level was determined. To this end, an anti-β-actin antibody (Chemicon) was employed. Detection was carried out by chemiluminescence (Western Lightning, NEN). […] LRP::FLAG.

[4] = target: T4, recombinant human LRP::FLAG expressed in BHK cells transfected with SFV1-huLRP-FLAG (human, UniProt P08865 2-295); assay: as above
T4 construct: whole, on cells; also called human 37 kDa LRP::FLAG; rec; LRP::FLAG
Description: as §2

[5] = target: T5, 37 kDa/67 kDa LRP/LR on murine neuroblastoma cells (N2a) (murine, UniProt P14206 2-295); assay: FACS on N2a cells
T5 construct: whole, on cells; also called LRP/LR on the surface of N2a cells

[6] = target: T6, LRP peptide VTKEEFQGEWTAPAP (also: synthesized on a cellulose membrane); assay: peptide array on cellulose membrane, scFv 1:5000
T6 peptide: VTKEEFQGEWTAPAP
Description: as §1

[7] = target: T7, LRP peptide EKAVTKEEFQGEWTA (also: synthesized on a cellulose membrane); assay: peptide array on cellulose membrane, scFv 1:5000
T7 peptide: EKAVTKEEFQGEWTA
Description: as §1

Measured: binding result

B1: single chain antibody N3 selected from the naive scFv bank (scFv)
scFv: EVQLVESGGGVVQPGRSLRLSCAASGFTFSSYGMHWVRQAPGKGLEWVAVIWYDGSNKYYADSVKGRFTISRDNSKNTLYLQMNSLRAEDTAVYYCATIPRSSFYYGMDVWGQGTTVTVSSGSASAPTLKLEEGEFSEARVQPVLTQPPSASGTPGQRVTISCSGSRSNIGSNTVNWYQQLPGTAPKLLIYGNNQRPSGVPERFSGSKSGTSASLAISGLQSEDEADYYCAAWDDSLTGVLFGGGTKLTVLGQPKAAPSVTLFPPSSAAAGSHHHHHH
notes: VH and VL joined by a peptide linker (YOL), with a C-terminal histidine tag; also called scFv N3; scFvN3
binds: [1] | [2] | [3] | [4] | [5]

B2: single chain antibody S18 selected from the synthetic scFv bank (scFv)
scFv: QVQLQESGGGLVQPGGSLRLSCAASGFMFSRYAMSWVRQAPGKGPEWVSGISGSGGSTYYADSVKGRFTVSRDNSKNTLYLQMNSLRAEDTAVYYCARHPGFWHFDYWGQGTLVTVSSGSASAPKLEEGEFSEARVSELTQDPAVSVALGQTVRITCQGDSLRNFYASWYQQKPGQAPTLVIYGLSKRPSGIPDRFSASSSGNTASLTITGAQAEDEADYYCNSRDRSGNHVNVLFGGGTKLTVLRQPKAAPSVTLFPPSSAAAGSHHHHHH
notes: VH and VL joined by a peptide linker (YOL), with a C-terminal histidine tag; also called scFv S18; scFvS18
binds: [6] | [7] | [3] | [4] | [5]
